Data on eight molecules can be found in US20250122271A1, “ANTI-DKK1 ANTIBODY, PHARMACEUTICAL COMPOSITION THEREOF, AND USE THEREOF” (SHANGHAI JUNSHI BIOSCIENCES CO., LTD., priority 2022, published 2025).

Read-outs that look alike come from different tables or passages of the source.

For experiment [1], the system named is A549 cells. As to the kind of experiment: A549 subcutaneous transplantation tumor model in CB17/SCID female mice. The experiment is classed as in vivo. As to conditions: day 35; paclitaxel 20 mg/kg intraperitoneal twice per week for 4 weeks. How it is done:
The experimental animals were CB17/SCID female mice, and A549 cells (5× 10^6) were subcutaneously inoculated into the mice to establish a subcutaneous transplantation tumor model. […] The groups each had 6 animals, and the animals in all the groups were subjected to intraperitoneal injection. […] The efficacy was evaluated based on tumor growth inhibition (TGI) (FIG. 9).

In experiment [2] the target is T1, human DKK1 (Homo sapiens, UniProt O94907).
T1 construct: purchased Sino Biological 10170-H08H
T1 sequence (O94907 32-266): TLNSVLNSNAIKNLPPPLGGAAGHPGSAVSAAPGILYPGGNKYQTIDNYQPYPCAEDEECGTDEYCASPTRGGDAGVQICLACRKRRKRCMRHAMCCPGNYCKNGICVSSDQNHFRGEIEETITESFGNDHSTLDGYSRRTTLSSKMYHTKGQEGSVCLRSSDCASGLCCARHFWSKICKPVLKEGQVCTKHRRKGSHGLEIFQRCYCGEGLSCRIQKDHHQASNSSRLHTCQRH
As to the kind of experiment: Binding of antibodies to human DKK1 by ELISA. As to conditions: chimeric antibodies, compared among each other. How it is done: (§1) Detection of the binding activity of the chimeric antibodies for human DKK1 by ELISA: After the plate was coated with 2.0 μg/mL human DKK1 antigen (Sino Biological, 10170-H08H) for 90 min and then blocked with 2% BSA for 90 min, the gradiently diluted anti-DKK1 chimeric antibodies and positive control antibody DKN-01 (starting at 1 μg/mL, diluted in a 2.5-fold gradient to 1.64 ng/ml, with a total of 8 concentrations) were added, and the mixture was incubated for 60 min. After the plate was washed, the 5000-fold diluted HRP-conjugated goat anti-human IgG (Fc specific) (Sigma, A0170) secondary antibody was added for incubation, and 0.1 mg/mL TMB (Sigma, T2885) was added for color development. Finally, the reaction was stopped with a 2 M hydrochloric acid solution. The plate was read at 450 nm/620 nm using a Thermo Scientific microplate reader, and the EC50 values of the chimeric antibodies (FIG. 3) were obtained by fitting using a four-parameter logistic regression (4PL) model.
Detection of the binding of the humanized antibodies to DKK1 by ELISA: The plate was coated with 2.0 μg/mL human DKK1 antigen (Sino Biological, 10170-H08H) for 90 min and then blocked with 2% BSA for 90 min. After the plate was washed, the gradiently diluted anti-DKK1 humanized antibodies (starting at 1 μg/mL, diluted in a 10-fold gradient to 1 ng/ml, with a total of 4 concentrations) were each added, and the mixture was incubated for 60 min. After the plate was further washed, the 5000-fold diluted HRP-conjugated goat anti-human IgG (Fc specific) (Sigma, A0170) secondary antibody was added for incubation for 30 min, and 0.1 mg/mL TMB (Sigma, T2885) was added at 100 μL per well for color development for 10 min. Finally, a 2 M hydrochloric acid solution was added at 50 μL per well to stop the reaction. The plate was read at 450 nm/620 nm using a Thermo Scientific microplate reader. The EC50 values of the humanized antibodies were obtained by fitting using a four-parameter logistic regression (4PL) model.
(In general: ELISA stands for enzyme-linked immunosorbent assay.)

The target of experiment [3] is T1, human DKK1. As to the kind of experiment: Luciferase reporter gene assay in 293 TOP cells with Wnt3a and human DKK1 (recovery of Wnt signaling). The experiment is classed as cell-based. Conditions: screening at protein and cellular level. How it is done:
The cellular biological activity of the DKK1 antibodies was tested using target cells 293 TOP overexpressing LRP5/6 and comprising the luciferase reporter system and recombinant Wnt3a (R&D systems, cat #5036-WN), as well as human DKK1 (Sino Biological, cat #10170-H08H) protein. The target cells 293 TOP were placed into a 96-well flat-bottomed white plate (corning, cat #3917) at 50,000 cells per well for incubation overnight. The supernatant was then discarded, and the gradiently diluted antibodies to be tested were each added for pre-incubation at 37° C. for 0.5 h. After the pre-incubation was completed, the diluted Wnt3a (R&D systems, cat #5036-WN) and human DKK1 protein, at working concentrations of 0.05 μg/mL and 0.1 μg/mL, respectively, were added into the mixture containing the cells and antibody for co-incubation at 37° C. for 6-8 h. Finally, the luciferase substrate One-Lite (Vazyme, cat #DD1203-03-AB) was added and the chemiluminescence values of the hybridoma antibodies were measured.
The cellular biological activity of the hDKK1 chimeric antibodies was tested using target cells 293 TOP overexpressing LRP5/6 and comprising the luciferase reporter system and recombinant Wnt3a (R&D systems, cat #5036-WN), as well as human DKK1 (Sino Biological, cat #10170-H08H) protein.
The target cells 293 TOP were placed into a 96-well flat-bottomed white plate (corning, cat #3917) at 50,000 cells per well for incubation overnight. […] Finally, the luciferase substrate One-Lite (Vazyme, cat #DD1203-03-AB) was added and the chemiluminescence values of the chimeric antibodies were measured (FIGS. 5A-5C).
The cellular biological activity of the DKK1 antibodies was tested using target cells 293 TOP overexpressing LRP5/6 and comprising the luciferase reporter system and recombinant Wnt3a (R&D systems, cat #5036-WN), as well as human DKK1 (Sino Biological, cat #10170-H08H) protein. […] Finally, the luciferase substrate One-Lite (Vazyme, cat #DD1203-03-AB) was added and the chemiluminescence values of the humanized antibodies were measured. […]
A general note: Reporter assays use an easily measured gene product as a stand-in for the process of interest.

Experiment [4] deals with T2, human DKK1 antigen (Sino Biological, 10170-H08H) (human, UniProt O94907 32-266).
T2 construct: also called huDKK1; hDKK1
T2 sequence (looked up): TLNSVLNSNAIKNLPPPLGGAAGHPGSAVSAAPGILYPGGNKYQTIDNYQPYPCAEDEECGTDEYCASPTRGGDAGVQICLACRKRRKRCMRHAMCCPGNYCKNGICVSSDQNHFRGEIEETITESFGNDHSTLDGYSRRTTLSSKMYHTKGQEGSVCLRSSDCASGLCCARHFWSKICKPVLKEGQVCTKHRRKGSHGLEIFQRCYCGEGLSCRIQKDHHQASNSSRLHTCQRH
As to the kind of experiment: ELISA, coated human DKK1. How it is done:
as §1

Experiment [5] concerns the target T3, human DKK1 antigen (Sino Biological, 10170-H08H) (human, UniProt O94907 32-266).
T3 chain: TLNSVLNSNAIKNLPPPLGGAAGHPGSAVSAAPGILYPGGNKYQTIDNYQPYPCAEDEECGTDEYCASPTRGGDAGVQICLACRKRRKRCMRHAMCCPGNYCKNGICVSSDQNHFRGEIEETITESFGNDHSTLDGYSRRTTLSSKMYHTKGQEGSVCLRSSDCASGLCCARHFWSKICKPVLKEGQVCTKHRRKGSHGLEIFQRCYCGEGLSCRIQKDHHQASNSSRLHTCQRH
As to the kind of experiment: ELISA blocking of DKK1-LRP6.

Experiment [6] has as its target T3, human DKK1 antigen (Sino Biological, …). As to the kind of experiment: ELISA binding; given as IC50.
Experiment [7] shares this target. Briefly: ELISA binding.
For experiment [8] the target is unchanged. As to the kind of experiment: ELISA binding.
The target is the same in experiment [9]. Briefly: ELISA blocking of DKK1-LRP6.

Regarding `CC(=O)O[C@H]1C(=O)[C@@]2(C)[C@H]([C@H](OC(=O)c3ccccc3)[C@]3(O)C[C@H](OC(=O)[C@H](O)[C@@H](NC(=O)c4ccccc4)c4ccccc4)C(C)=C1C3(C)C)[C@]1(OC(C)=O)CO[C@@H]1C[C@@H]2O` [paclitaxel, reference compound], the “tumor growth inhibition (TGI)” value in experiment [1] amounted to 60.48%.

B1: chi-8: chimeric antibody 2VH+2VL (SEQ ID NO: 39/40) (antibody, V domains shown)
VH: MGWSWIFLFLLSGTAGVLSEVQLQQSGPELVKPGASVKIFCKTSGYTFTENTMHWVKQTHGKSLEWIGGINPHKGGTSYNQKFKGKATLTVDKSSSTACMELRSLTSEDSTVYYCARDWLGAMDYWGQGTSVTVSP
VL: MFSLALLLSLLLLCVSDSRAETTVTQSPASLSMAIGEKVTIRCITSTDIDDDMNWYQQKPGEPPKLLISEGNTLRPGVPSRFSSSGYGTDFVFTIENMLSEDVADYYCLQSDNLPYTFGGGTKLEIK
For the molecule B1, the “relative binding activity for human DKK1 (ELISA)” value (“relative binding activity” for short) in [2] is “superior activity”. For the same molecule, the “in vitro activity in the screening of the chimeric antibodies of Example 4” value (“in vitro activity in the screening” below) in experiment [3] is reported as “best in vitro activity”.

B2: chi-1: chimeric antibody 1VH+1VL (SEQ ID NO: 37/38) (antibody, V domains shown)
VH: MGWSWIFLFLLSGTAGVLSEVQLQQSGPELVKPGASVRISCKTSGYTFTEYTMHWVKQSHGKSLEWIGVIDPSNGDTSYNQKFKGRATLTVDKSSSTAYMDLRSLTSEDSALYYCSSTTGPWFACWGQGTLVTVSA
VL: MSSAQFLGLLLLCFQGTRCDIQMTQTTSSLSASLGDRVTINCRASQDISNYLNWYQQKPDGTVKLLIYYKSRLHSGVPTRFSGSGSGTDFSLTISNLVQEDIATYFCQQVHTLPPTFGGGTKLEIK
As for B2, the “relative binding activity” value in [2] is recorded as “superior activity”. Moreover, the “in vitro activity in the screening” value in experiment [3] is “best in vitro activity”.

B3: chi-15: chimeric antibody 3VH+3VL (SEQ ID NO: 41/42) (antibody, V domains shown)
VH: MGWNCFILFLVATATGVHSQVQLQQPGAELVKPGASVKMSCKASGYTFTSYNMLWVKQTPGQGLEWIGVIFPGNGDTSYNPKFKGKAALTADKSSSTAYMQLSSLTSEDSAVYYCARDGYPSMDYWGQGTSVTVSS
VL: MLSLAPLLSLLLLCVSDSRAETIVTQSPASLSVATGEKVTIRCITSTDIDDDMNWYQQKPGEPPKLLISEGNSLRPGVPSRFSSSGYGTDFVFTIENTLSEDVADYYCLQFNNMPLTFGAGTKLELK
For the molecule B3, the “relative binding activity” value in experiment [2] is recorded as “superior activity”. In addition, the “in vitro activity in the screening” value in experiment [3] is “best in vitro activity”.

B4: chimeric antibody chi-8 (antibody, human IgG4 S228P, kappa, V domains shown)
VH: EVQLQQSGPELVKPGASVKIFCKTSGYTFTENTMHWVKQTHGKSLEWIGGINPHKGGTSYNQKFKGKATLTVDKSSSTACMELRSLTSEDSTVYYCARDWLGAMDYWGQGTSVTVSP
VL: ETTVTQSPASLSMAIGEKVTIRCITSTDIDDDMNWYQQKPGEPPKLLISEGNTLRPGVPSRFSSSGYGTDFVFTIENMLSEDVADYYCLQSDNLPYTFGGGTKLEIKR
notes: hIgG4 heavy constant region and human kappa constant region; also called No. 2 chimeric antibody molecule
By IC50 is commonly meant the concentration needed to halve the response being measured. A lower IC50 goes with greater potency in that assay. Broadly, the EC50 is the concentration that produces a half-maximal response. Low values mean a more potent agent, high ones a less potent agent. On to B4, for which the binding result in experiment [4] is reported as “binds”. Moreover, the IC50 in experiment [5] was 0.309 µg/mL. The molecule further returned an EC50 in experiment [6] of 0.0434 µg/mL.

B5: chi-21 (antibody, V domains shown)
VH: QVQLQQPGAELVKPGASVKMSCKASGYTFTSYNMLWVKQTPGQGLEWIGVIFPGNGDTSYNPKFKGKAALTADKSSSTAYMQLSSLTSEDSAVYYCARDGYPSMDYWGQGTSVTVSS
VL: QIVLTQSPVIMSASPGEKVTMTCSASSSVSYMYWYQQKPGSSPRLLIYDTSNLASGVPVRFSGSGSGTSYSLTISRMEAEDAATYYCQQWSSYPPALTFGAGTKLELK
B5 showed an EC50 in experiment [7] of 0.816 µg/mL. In [5], this molecule displayed a half-maximal inhibitory concentration (IC50) of 0.92 µg/mL.

B6: chimeric antibody chi-15 (antibody, human IgG4 S228P, kappa, V domains shown)
VH: QVQLQQPGAELVKPGASVKMSCKASGYTFTSYNMLWVKQTPGQGLEWIGVIFPGNGDTSYNPKFKGKAALTADKSSSTAYMQLSSLTSEDSAVYYCARDGYPSMDYWGQGTSVTVSS
VL: ETIVTQSPASLSVATGEKVTIRCITSTDIDDDMNWYQQKPGEPPKLLISEGNSLRPGVPSRFSSSGYGTDFVFTIENTLSEDVADYYCLQFNNMPLTFGAGTKLELKR
notes: hIgG4 heavy constant region and human kappa constant region; also called No. 3 chimeric antibody molecule
For the molecule B6, the binding result in [4] is recorded as “binds”. Also, the EC50 worked out at 0.0244 µg/mL in [8] and 0.0238 µg/mL in experiment [7]. Moreover, the IC50 in experiment [9] came out at 0.258 µg/mL; in experiment [5] it was 0.0992 µg/mL.

B7: chimeric antibody chi-1 (antibody, human IgG4 S228P, kappa, V domains shown)
VH: EVQLQQSGPELVKPGASVRISCKTSGYTFTEYTMHWVKQSHGKSLEWIGVIDPSNGDTSYNQKFKGRATLTVDKSSSTAYMDLRSLTSEDSALYYCSSTTGPWFACWGQGTLVTVSA
VL: DIQMTQTTSSLSASLGDRVTINCRASQDISNYLNWYQQKPDGTVKLLIYYKSRLHSGVPTRFSGSGSGTDFSLTISNLVQEDIATYFCQQVHTLPPTFGGGTKLEIKR
notes: hIgG4 heavy constant region and human kappa constant region; also called No. 1 chimeric antibody molecule
For B7, the binding result in [4] is given as “binds”. Further, inhibition in experiment [5] was half-maximal at 0.355 µg/mL (IC50). The molecule also showed an EC50 in experiment [6] of 0.0238 µg/mL.
